According to PMC3852661 (2013):
Where no end group is shown, it is not given here. The star is where a group is joined. 5FAM = O=C1OC2(c3ccc(O)cc3Oc3cc(O)ccc32)c2ccc(C(=O)*)cc21

Assays:
Experiment in all cases: MST
MBP-SUFU-SH = MBP-SUFU-SH (human, UniProt Q9UMX1 32-278; Q9UMX1 361-483)
MBP-SUFU-FL = molecular target: T1, MBP-SUFU-FL (human, UniProt Q9UMX1 32-483)
T1 chain: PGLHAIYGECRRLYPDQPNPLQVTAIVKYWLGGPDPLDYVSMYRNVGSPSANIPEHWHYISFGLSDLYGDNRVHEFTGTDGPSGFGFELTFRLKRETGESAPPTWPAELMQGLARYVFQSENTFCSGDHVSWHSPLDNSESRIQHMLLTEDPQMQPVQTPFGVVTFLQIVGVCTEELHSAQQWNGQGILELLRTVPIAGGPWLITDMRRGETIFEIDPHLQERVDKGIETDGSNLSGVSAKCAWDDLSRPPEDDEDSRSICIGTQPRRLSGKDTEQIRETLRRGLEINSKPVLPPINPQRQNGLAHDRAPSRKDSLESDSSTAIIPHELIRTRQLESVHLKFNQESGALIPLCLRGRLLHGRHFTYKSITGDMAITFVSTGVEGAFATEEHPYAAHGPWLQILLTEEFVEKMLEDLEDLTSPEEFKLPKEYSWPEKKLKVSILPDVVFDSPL

MBP-SUFU-Δ = molecular target: T2, MBP-SUFU-Δ (human, UniProt Q9UMX1 32-278; Q9UMX1 361-483)
T2 chain: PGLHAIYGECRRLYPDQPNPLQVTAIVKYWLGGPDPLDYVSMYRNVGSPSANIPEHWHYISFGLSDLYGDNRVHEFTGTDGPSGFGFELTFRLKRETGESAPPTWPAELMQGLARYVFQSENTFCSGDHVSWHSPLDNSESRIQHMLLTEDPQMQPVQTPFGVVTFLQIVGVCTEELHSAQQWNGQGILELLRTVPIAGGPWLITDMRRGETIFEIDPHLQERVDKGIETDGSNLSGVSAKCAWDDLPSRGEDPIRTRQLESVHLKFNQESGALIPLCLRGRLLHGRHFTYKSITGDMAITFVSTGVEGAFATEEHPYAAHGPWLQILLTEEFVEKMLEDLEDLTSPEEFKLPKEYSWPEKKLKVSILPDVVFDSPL

B1: FAM-GLI1p (peptide)
peptide: 5FAM-TSPGGSYGHLSIGTMSP
B1 gave a Kd (MBP-SUFU-SH) of 4.22 µM, a Kd (MBP-SUFU-FL) of 4.5 µM and a Kd (MBP-SUFU-Δ) of 4.47 µM.
